# Measurements from PMC9943658 (Nucleic Acids Research, 2023).
# Target: the molecule itself
# Experiment: SEC
row,Protein,stoichiometry N
1,"His-T7-hnRNP C1 wild type (natural protein, UniProt P07910-2 1-293, looked up) MASNVTNKTDPRSMNSRVFIGNLNTLVVKKSDVEAIFSKYGKIVGCSVHKGFAFVQYVNERNARAAVAGEDGRMIAGQVLDINLAAEPKVNRGKAGVKRSAAEMYGSSFDLDYDFQRDYYDRMYSYPARVPPPPPIARAVVPSKRQRVSGNTSRRGKSGFNSKSGQRGSSKSGKLKGDDLQAIKKELTQIKQKVDSLLENLEKIEKEQSKQAVEMKNDKSEEEQSSSSVKKDETNVKMESEGGADDSAEEGDLLDDDDNEDRGDDQLELIKDDEKEAEEGEDDRDSANGEDDS",4
2,His-T7-hnRNP C1 ΔRRMΔBASIC (natural protein) MASNVTNKTDPRSMNPKVNRGKAGVKRSAAEMYGSSFDLDYDFQRDYYDRMYSYPARVPPPPPIARALQAIKKELTQIKQKVDSLLENLEKIEKEQSKQAVEMKNDKSEEEQSSSSVKKDETNVKMESEGGADDSAEEGDLLDDDDNEDRGDDQLELIKDDEKEAEEGEDDRDSANGEDDS,4
3,His-T7-hnRNP C1 ΔBASIC (natural protein) MASNVTNKTDPRSMNSRVFIGNLNTLVVKKSDVEAIFSKYGKIVGCSVHKGFAFVQYVNERNARAAVAGEDGRMIAGQVLDINLAAEPKVNRGKAGVKRSAAEMYGSSFDLDYDFQRDYYDRMYSYPARVPPPPPIARALQAIKKELTQIKQKVDSLLENLEKIEKEQSKQAVEMKNDKSEEEQSSSSVKKDETNVKMESEGGADDSAEEGDLLDDDDNEDRGDDQLELIKDDEKEAEEGEDDRDSANGEDDS,4
